Measured values from US20200009213A1, “Specific Increase of Dopamine Synthesis THrough Targeting of the Guanylate Cyclase 2C Receptor in the Treatment of Parkinson's Disease” (Universiteit van Amsterdam, priority 2017, published 2020).

Key:
[1] = target: T1, human GUCY2C (Homo sapiens, UniProt P25092); assay: Ser40 phosphorylation of Th in HEK cells co-transfected with Th and GUCY2C (western blotting, ratio P-Ser40/Total Th); format: cell-based; conditions: guanylin 10 μM, 1 hour; for P-Ser40 levels (Fold Change = ratio P-Ser40/Total Th): HEK cells co-transfected with Th and GUCY2C, uroguanylin 1 μM, p<0.01
T1 construct: expressed in transfected cells; host or cells: HEK cells
Protocol: FIG. 4. GUCY2C activation increases Ser40 phosphorylation. Immunocytochemistry images (A) and western blotting analysis (B) of HEK cultures transfected with Th or Th+GUCY2C. (C) Co-transfected HEK cells were treated with guanylin (G) or uroguanylin (UroG) and changes in Ser40 phosphorylation were studied. The graph represents the statistical analysis (n=3 for Control, n=6 for Guanylin, n=9 for Uroguanylin; Mean±SEM). Unpaired Student's t-test (p-value: **<0.01).
(§1) FIG. 5. The increase in Ser40 phosphorylation is proportional to the produced amount of cGMP upon GUCY2C stimulation. (A) HEK cultures were treated with guanylin, in the presence or absence of IBMX. […] Unpaired Student's t-test (p-values: ****<0.0001, **<0.01, *<0.05). (B) HEK cells were co-transfected with Th and either the wt GUCY2C or a gain-of-function mutant (R792S). Ser40 phosphorylation was studied following guanylin treatment (G). […] Unpaired Student's t-test (p-values: ***<0.001, **<0.01).
(§2) HEK cells were maintained in 100-mm Petri dishes and grown in DMEM medium supplemented with L-glutamine, penicillin-streptomycin (Pen&Strep) and 10% heat-inactivated fetal bovine serum (HIFBS). Growing conditions were 37° C. and 5% CO2. For every-other-day passages, HEK cultures were split at a 1:3 dilution. From Friday to Monday, the split proportion was doubled for all cell lines. For passaging, cultures were rinsed with PBS and incubated with 1 mL of trypsin during 5 minutes. Cells were resuspended in growth medium and finally split to the proper dilution. The experiments were performed in 12-well plates. For immunocytochemistry analysis, sterile 18-mm coverslips were added prior to the plating. 500 μL of cell resuspension was seeded in each well. If experiments were to be performed 48 hours after the plate preparation, 1:5 was the seeding ratio for HEK cells. When the experiments took place 96 hours post-plating, 1:7 was the working dilution for HEK cells. Unless otherwise stated, HEK cultures were processed 96 hours post-plating.
HEK cells were transfected using the calcium-phosphate method. […]

[2] = test system: Th Ser40 phosphorylation (cGMP-derived signaling) in HEK cells; assay: Ser40 phosphorylation of Th in HEK cells transfected with Th (western blotting, ratio P-Ser40/Total Th); format: cell-based, mouse Th in HEK cells; conditions: 500 μM, 1 hour, 48 hours post-plating, n=6, p<0.0001
Protocol: FIG. 3. HEK cells are a suitable model to study GUCY2C-induced Ser40 phosphorylation. (A) RT-qPCR data from intact HEK extracts. Input material was 10 ng of total RNA. Cp corresponds to the cycle number in which the expression starts to be considered positive. (-) represents the water control, which is negative in every case. (B) HEK cultures were transfected with Th and treated with a cGMP analogue 48 hours post-plating. Changes in Ser40 phosphorylation were studied. The graph represents the statistical analysis (n=6; Mean±SEM). Unpaired Student's t-test (p-value: ****<0.0001). Hereon, ‘Fold Change’ corresponds to the ratio P-Ser40/Total Th.
as §2, with “If experiments were to be performed 48 hours after the plate preparation, 1:5 was the seeding ratio for HEK cells. When the experiments took place 96 hours post-plating, 1:7 was the working dilution for HEK cells. Unless otherwise stated, HEK cultures were processed 96 hours post-plating.” left out

[3] = target: T2, GUCY2C R792S mutant (Homo sapiens, UniProt P25092, R792S); assay: Ser40 phosphorylation in HEK cells co-transfected with Th and GUCY2C gain-of-function mutant R792S versus wt; format: cell-based; conditions: HEK cells co-transfected with Th and wt or R792S GUCY2C; FIG. 5B
T2 construct: expressed in transfected cells; host or cells: HEK cells
Protocol: as §1
HEK cells were transfected using the calcium-phosphate method. 12-well plates were refreshed with 500 μL of growth medium before transfection. […] The plasmid mixture was taken into a final concentration of 250 mM CaCl2 in a total volume of 110 μL. A complementary tube was filled with 110 μL of HEPES-buffered saline 2× (HEBS 2×: 1.5 mM Na2HPO4, 50 mM HEPES pH 7.05, 280 mM NaCl). […]
Up to 35 μL of sample was loaded in each slot and run in the presence of tris-glycine buffer and 0.1% SDS. […] After additional washings during 1 hour, blots were exposed to an enhanced chemiluminescence solution and the signal was detected using an Odyssey imager (LI-COR). […] For graph quantifications, ‘Fold Change’ represents the ratio P-Ser40/Total Th. Statistical comparisons between pair of groups correspond to unpaired Student's t-tests, as calculated with GraphPad Prism. […]

[4] = injected into the blood stream; cited from earlier work

T1 sequence (P25092 24-1073): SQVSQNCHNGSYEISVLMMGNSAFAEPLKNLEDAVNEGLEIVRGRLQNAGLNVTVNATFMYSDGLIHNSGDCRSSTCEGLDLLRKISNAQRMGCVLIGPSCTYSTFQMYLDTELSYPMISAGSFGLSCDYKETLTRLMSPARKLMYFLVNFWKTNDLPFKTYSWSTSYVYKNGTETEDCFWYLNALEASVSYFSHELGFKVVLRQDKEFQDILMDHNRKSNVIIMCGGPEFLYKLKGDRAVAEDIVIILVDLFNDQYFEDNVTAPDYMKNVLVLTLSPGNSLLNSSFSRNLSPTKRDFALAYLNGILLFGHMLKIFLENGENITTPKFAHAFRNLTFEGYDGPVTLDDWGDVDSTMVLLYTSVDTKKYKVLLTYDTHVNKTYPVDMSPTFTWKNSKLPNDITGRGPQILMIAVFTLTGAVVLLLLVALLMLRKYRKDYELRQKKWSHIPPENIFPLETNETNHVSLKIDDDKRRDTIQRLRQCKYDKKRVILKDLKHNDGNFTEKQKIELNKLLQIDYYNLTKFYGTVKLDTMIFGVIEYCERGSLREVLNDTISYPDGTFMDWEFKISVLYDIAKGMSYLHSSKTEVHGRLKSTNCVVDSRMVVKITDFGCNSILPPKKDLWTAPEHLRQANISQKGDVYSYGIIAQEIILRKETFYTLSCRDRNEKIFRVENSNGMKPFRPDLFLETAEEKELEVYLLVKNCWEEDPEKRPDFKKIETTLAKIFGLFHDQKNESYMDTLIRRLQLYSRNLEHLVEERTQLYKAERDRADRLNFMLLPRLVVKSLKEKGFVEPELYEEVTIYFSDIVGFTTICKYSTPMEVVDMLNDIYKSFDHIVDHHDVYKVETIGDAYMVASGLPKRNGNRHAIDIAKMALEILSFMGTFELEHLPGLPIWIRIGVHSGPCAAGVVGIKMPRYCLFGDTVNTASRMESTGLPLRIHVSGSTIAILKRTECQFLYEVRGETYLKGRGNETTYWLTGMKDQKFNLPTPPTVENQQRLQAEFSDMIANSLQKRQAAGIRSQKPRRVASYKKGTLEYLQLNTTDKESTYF
T2 sequence (P25092 24-1073 R792S): as the sequence (P25092 24-1073) above, with R769S counted along it

## uroguanylin: natural agonistic ligand of GUCY2C; a 16 amino acid peptide (NDDCELCVNVACTGCL)
[1]
  P-Ser40 levels (Fold Change = ratio P-Ser40/Total Th): increase P-Ser40 levels

## CC(C)Cn1c(=O)n(C)c(=O)c2[nH]cnc21 [IBMX, 3-isobutyl-1-methylxanthine]
[1]; HEK cultures, IBMX 100 μM, FIG. 5A
  Ser40 phosphorylation with PDE inhibition: potentiated the increase in Ser40 phosphorylation as compared to guanylin administration

## Nc1nc2c(nc(Br)n2[C@@H]2O[C@@H]3COP(=O)(O)O[C@H]3[C@H]2O)c(=O)[nH]1 [8-Bromo-cGMP]
[2]
  P-Ser40 levels (Fold Change = ratio P-Ser40/Total Th): small but significant increase in P-Ser40 levels

## guanylin: natural agonistic ligand of GUCY2C; a 15 amino acid polypeptide (PGTCEICAYAACTGC)
[1]
  P-Ser40 levels (Fold Change = ratio P-Ser40/Total Th): increase P-Ser40 levels
[3]
  boost in Ser40 phosphorylation upon guanylin treatment, R792S mutant compared to wt receptor: 1.5 fold
[4]
  passage of the blood-brain barrier: rapidly enters the brain
